Data from doi:10.1101/2021.04.27.441644.

Molecular target: filamentous actin (F-actin) (rabbit) (UniProt P68135)
Test: co-sedimentation

Sequence of CLIP-170 N-terminal fragment H2 (H2 1-481) (P30622 1-481): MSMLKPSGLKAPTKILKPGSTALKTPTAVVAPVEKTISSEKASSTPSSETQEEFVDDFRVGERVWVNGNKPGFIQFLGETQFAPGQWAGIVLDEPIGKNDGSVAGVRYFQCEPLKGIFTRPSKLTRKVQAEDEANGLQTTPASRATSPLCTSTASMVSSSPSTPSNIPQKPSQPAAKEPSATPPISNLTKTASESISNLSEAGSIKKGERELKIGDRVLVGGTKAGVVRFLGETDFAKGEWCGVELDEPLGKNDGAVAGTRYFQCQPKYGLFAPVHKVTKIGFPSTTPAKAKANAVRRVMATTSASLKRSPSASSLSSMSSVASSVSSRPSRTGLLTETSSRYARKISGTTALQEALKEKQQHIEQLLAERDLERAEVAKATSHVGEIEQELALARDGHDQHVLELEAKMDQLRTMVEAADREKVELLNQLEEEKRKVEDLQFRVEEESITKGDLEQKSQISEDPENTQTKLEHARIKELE

Kd: 10 µM | percent of H2 in the pellet with F-actin (self-pelleting subtracted): 26%
Substance: CLIP-170 N-terminal fragment H2 (H2 1-481) (from UniProt P30622 1-481) (domain or fragment)
